We go through two molecules from paper PMC6913698.

In series [1] the target is T1, His-TF-TaGATA1 (Triticum aestivum (line CI12633), UniProt A0A5K7NI72 1-181).
T1 sequence: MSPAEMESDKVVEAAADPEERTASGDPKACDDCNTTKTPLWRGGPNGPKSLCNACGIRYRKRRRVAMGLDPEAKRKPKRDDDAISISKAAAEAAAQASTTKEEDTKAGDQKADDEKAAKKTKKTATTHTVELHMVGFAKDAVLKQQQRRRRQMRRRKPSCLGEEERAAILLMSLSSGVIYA
Description: EMSA. On the technique in general: Mobility shift assays separate free from complexed probe on a gel.

The target of series [2] is T1, His-TF-TaGATA1. Description: competition.

B1: GATA-containing probe (dsDNA)
DNA 1: AGTCGACGTGGATAATGGATCCTCGAGTGGATAATTCGATC
DNA 2: GATCGAATTATCCACTCGAGGATCCATTATCCACGTCGACT
For B1, the binding result with His-TF-TaGATA1 [1] is “binds”.

B2: unlabelled GATA-containing competitor (dsDNA)
DNA 1: B1 DNA 1
DNA 2: B1 DNA 2
Consider B2, for which, in the series with His-TF-TaGATA1 [2], the binding result is “binds”.
